# Assay results as given in patent publication US20260091061A1 (LEGEND BIOTECH IRELAND, published 2026).
# B1: VHHC0694H2-mIgG1Fc (Fc fusion)
# chain: QVQLVESGGGVVQPGRSLRLSCAASGYTYSRYCMAWFRQAPGKEREGVAVIDPDGSTTYADSVKGRFTISQDNSKNTLYLQMNSLRAEDTAVYYCAADPRVWYGGTCRAGRTDFSNWGQGTMVTVSSVPRDCGCKPCICTVPEVSSVFIFPPKPKDVLTITLTPKVTCVVVDISKDDPEVQFSWFVDDVEVHTAQTQPREEQFNSTFRSVSELPIMHQDWLNGKEFKCRVNSAAFPAPIEKTISKTKGRPKAPQVYTIPPPKEQMAKDKVSLTCMITDFFPEDITVEWQWNGQPAENYKNTQPIMNTNGSYFVYSKLNVQKSNWEAGNTFTCSVLHEGLHNHHTEKSLSHSPGK
# notes: also called humanized chimeric antibody VHHC0694H2-mIgG1Fc
# B2: VHHA2322H2-mIgG1Fc (Fc fusion)
# chain: QVHLVESGGGVVQPGRSLRLSCAASGYTGRRLCRGWFRQAPGKEREGVATITLSGRASYADSVKGRFTISQDNSKNTLYLQMNSLRAEDTAVYFCAEVRSADAEWLNPLKCHPDRLGLAGVDWGQGTTVTVSSVPRDCGCKPCICTVPEVSSVFIFPPKPKDVLTITLTPKVTCVVVDISKDDPEVQFSWFVDDVEVHTAQTQPREEQFNSTFRSVSELPIMHQDWLNGKEFKCRVNSAAFPAPIEKTISKTKGRPKAPQVYTIPPPKEQMAKDKVSLTCMITDFFPEDITVEWQWNGQPAENYKNTQPIMNTNGSYFVYSKLNVQKSNWEAGNTFTCSVLHEGLHNHHTEKSLSHSPGK
# notes: also called humanized chimeric antibody VHHA2322H2-mIgG1Fc
# B3: VHHC0708H2-mIgG1Fc (Fc fusion)
# chain: EVQLVESGGGVVQPGGSLRLSCAASGYTYSRYCMGWVRQAPGKEREGVALIASDGTTTYADSVKGRFTISQDNSKNTLYLQMNSLRAEDTAVYYCAADAVNWYGSICASMIRRKNPAFGYWGQGTLVTVSSVPRDCGCKPCICTVPEVSSVFIFPPKPKDVLTITLTPKVTCVVVDISKDDPEVQFSWFVDDVEVHTAQTQPREEQFNSTFRSVSELPIMHQDWLNGKEFKCRVNSAAFPAPIEKTISKTKGRPKAPQVYTIPPPKEQMAKDKVSLTCMITDFFPEDITVEWQWNGQPAENYKNTQPIMNTNGSYFVYSKLNVQKSNWEAGNTFTCSVLHEGLHNHHTEKSLSHSPGK
# notes: also called humanized chimeric antibody VHHC0708H2-mIgG1Fc
# B4: VHHA2322 (VHH)
# VHH: QVHLVESGGGSVQSGGSLRLSCAASGYTGRRLCRGWFRQTPGKEREGVATITLSGRASYADSVKGRFTISQDNAKNTLYLQMNGLKPEDTAMYFCAEVRSADAEWLNPLKCHPDRLGLAGVDWGQGTQVTVSS
# notes: Screened as E. coli culture supernatant and detected with an anti-cmyc antibody
# B5: VHHA2493 (VHH)
# VHH: QMQLVESGGGSVQSGGSLRLSCATNEPPYSIYCMAWFRQAPGKARERVAAILNAGGTRYADSVKGRFTISRDNAAKTFALQMNSLKPEDTGTYYCATRADAGRWGSACTTELDFGNWGQGTQVTVSS
# notes: as for B4
# B6: VHHC0464 (VHH)
# VHH: QVQLQESGGGLVQAGGSLRLSCLASGLAFPSYAMGWFRQAPGKEREWVSCVTRSGGDTLYADSAKGRFAISRDNAKNTLYLQMNSLKPEDTAMYYCAAALFCANLRRNKDNYWGQGTQVTVSS
# notes: as for B4
# B7: VHHC0467 (VHH)
# VHH: QMQLVESGGGLVQAGGSLRLSCIASGLTFPTYAMGWFRQAPGKEREWVSCVTRSGGDTLYADSAKGRFTISRDNAKNTLFLQMNSLKPEDTAMYYCVAALFCHNLRLNTGNYWGQGTQVTVSS
# notes: as for B4
# B8: VHHC0494 (VHH)
# VHH: QVHLVESGGGSVQSGGSLRLSCATSASPYSMHCMGWFRQAPGKARERVASILNAGSTTYADSVKGRFTISRDNAEKTLYLQMNSLKPEDTGTYYCAARPDAGRWRSACTTELDFGYWGQGTQVTVSS
# notes: as for B4
# B9: VHHC0524 (VHH)
# VHH: QVQLAESGGGSVQSGGSLRLSCAASGYTYSRYCMAWFRQAPGKEREGVAVIVSDNDGSATYADSVKGRFTISQDNAKNMLYLQMNSLKPEDTAMYYCAADPRVWYGGTCRAGRTDFLYWGQGTQVTVSS
# notes: as for B4
# B10: VHHC0694 (VHH)
# VHH: QVQLVESGGGSVQSGGSLRLSCAASGYTYSRYCMAWFRQAPGKEREGVAVIDPDGSTTYADSVKGRFTISQDNAKNTLYLQMNSLKPEDTAMYYCAADPRVWYGGTCRAGRTDFSNWGQGTQVTVSS
# notes: as for B4
# B11: VHHC0708 (VHH)
# VHH: QVQLEESGGGSVQSGGSLRLSCAASGYTYSRYCMGWVRQAPGKEREGVALIASDGTTTYADSVKGRFTISQDNAKNTLYLQMNSLKPEDTAMYYCAADAVNWYGSICASMIRRKNPAFGYWGRGTQVTVSS
# notes: as for B4
# B12: VHHC0806 (VHH)
# VHH: QVHLVESGGGSVQSGGSLRLSCAGSGYTYSTHCMGWFRQAPGKERERVATIDKDGRTSHYADAVKGRFTISQDNAKNTLYLQMSSLNPEDTAMYYCAAAEHRGAWCPLWDRSAPLLAHIHWGQGTQVTVSS
# notes: as for B4
# Biological target: T1, human GCC (human, UniProt P25092 24-1073)
# T1 construct: whole, on cells; also called huGCC; Guanylyl cyclase C
# T1 sequence (P25092 24-1073): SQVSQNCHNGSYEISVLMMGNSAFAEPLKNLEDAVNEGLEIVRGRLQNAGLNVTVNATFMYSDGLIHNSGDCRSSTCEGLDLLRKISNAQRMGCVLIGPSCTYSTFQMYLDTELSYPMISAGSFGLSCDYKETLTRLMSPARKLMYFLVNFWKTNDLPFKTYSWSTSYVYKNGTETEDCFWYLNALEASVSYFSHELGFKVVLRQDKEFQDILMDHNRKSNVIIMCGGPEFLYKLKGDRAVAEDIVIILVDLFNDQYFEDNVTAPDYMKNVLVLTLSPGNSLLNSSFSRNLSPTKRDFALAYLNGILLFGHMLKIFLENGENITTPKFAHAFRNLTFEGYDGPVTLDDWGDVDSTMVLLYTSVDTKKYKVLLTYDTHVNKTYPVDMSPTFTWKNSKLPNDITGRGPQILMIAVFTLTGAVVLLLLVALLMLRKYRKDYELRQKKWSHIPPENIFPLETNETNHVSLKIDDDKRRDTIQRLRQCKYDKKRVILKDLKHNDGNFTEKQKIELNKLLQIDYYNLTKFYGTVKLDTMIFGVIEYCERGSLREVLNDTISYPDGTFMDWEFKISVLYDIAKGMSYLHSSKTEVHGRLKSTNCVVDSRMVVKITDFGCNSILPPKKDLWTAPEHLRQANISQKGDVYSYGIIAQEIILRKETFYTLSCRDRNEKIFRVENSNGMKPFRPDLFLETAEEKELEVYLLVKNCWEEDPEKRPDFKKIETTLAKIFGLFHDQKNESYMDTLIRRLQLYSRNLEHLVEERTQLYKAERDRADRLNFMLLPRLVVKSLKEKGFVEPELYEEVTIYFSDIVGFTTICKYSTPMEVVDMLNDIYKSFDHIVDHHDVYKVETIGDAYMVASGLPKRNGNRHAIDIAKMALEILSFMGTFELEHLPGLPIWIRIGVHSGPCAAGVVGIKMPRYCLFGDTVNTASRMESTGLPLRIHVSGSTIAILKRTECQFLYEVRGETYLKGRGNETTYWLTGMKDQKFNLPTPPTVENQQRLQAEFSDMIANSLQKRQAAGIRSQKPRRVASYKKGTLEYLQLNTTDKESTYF
# Assay: flow cytometry on HEK293T.huGCC.Luc cells, percentage of binding
row,Binder,EC50 [nM]
1,B1,0.0315
2,B2,0.0192

# Biological target: T2, huGCC-his (human, UniProt P25092 24-430, limits assumed)
# T2 construct: Soluble his-tagged human GCC used as analyte on Biacore; also called GCC (SPR analyte); not shown: his tag
# T2 sequence (P25092 24-430 limits assumed): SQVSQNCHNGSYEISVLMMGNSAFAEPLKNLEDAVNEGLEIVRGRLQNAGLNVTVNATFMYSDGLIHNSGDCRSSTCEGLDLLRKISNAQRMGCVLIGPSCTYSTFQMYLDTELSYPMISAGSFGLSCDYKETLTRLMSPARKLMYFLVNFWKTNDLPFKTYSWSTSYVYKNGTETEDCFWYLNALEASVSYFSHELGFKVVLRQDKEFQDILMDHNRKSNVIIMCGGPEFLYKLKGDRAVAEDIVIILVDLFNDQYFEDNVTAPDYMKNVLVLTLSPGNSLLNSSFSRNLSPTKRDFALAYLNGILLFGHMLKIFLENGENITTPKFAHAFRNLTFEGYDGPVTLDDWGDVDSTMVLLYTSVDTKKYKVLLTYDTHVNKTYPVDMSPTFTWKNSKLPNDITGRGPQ
# Assay: SPR, Biacore T200; antibody captured via Fc, GCC as analyte; 1:1 model
row,Binder,Kd [nM]
1,B1,1.34
2,B2,1.65
3,B3,1.02

# Biological target: T1, human GCC
# Assay: screen of clone supernatants: cell based ELISA on HEK293T.huGCC.Luc cells and ELISA on recombinant human GCC protein (ACRO GUC-H52H5)
row,Binder,binding result
1,B4,binds
2,B5,binds
3,B6,binds
4,B7,binds
5,B8,binds
6,B9,binds
7,B10,binds
8,B11,binds
9,B12,binds

# Biological target: T3, mouse GCC (mouse, UniProt Q3UWA6 20-1072)
# T3 construct: whole, on cells; also called mGCC; HEK293T.mGCC.Luc cells
# T3 sequence (looked up): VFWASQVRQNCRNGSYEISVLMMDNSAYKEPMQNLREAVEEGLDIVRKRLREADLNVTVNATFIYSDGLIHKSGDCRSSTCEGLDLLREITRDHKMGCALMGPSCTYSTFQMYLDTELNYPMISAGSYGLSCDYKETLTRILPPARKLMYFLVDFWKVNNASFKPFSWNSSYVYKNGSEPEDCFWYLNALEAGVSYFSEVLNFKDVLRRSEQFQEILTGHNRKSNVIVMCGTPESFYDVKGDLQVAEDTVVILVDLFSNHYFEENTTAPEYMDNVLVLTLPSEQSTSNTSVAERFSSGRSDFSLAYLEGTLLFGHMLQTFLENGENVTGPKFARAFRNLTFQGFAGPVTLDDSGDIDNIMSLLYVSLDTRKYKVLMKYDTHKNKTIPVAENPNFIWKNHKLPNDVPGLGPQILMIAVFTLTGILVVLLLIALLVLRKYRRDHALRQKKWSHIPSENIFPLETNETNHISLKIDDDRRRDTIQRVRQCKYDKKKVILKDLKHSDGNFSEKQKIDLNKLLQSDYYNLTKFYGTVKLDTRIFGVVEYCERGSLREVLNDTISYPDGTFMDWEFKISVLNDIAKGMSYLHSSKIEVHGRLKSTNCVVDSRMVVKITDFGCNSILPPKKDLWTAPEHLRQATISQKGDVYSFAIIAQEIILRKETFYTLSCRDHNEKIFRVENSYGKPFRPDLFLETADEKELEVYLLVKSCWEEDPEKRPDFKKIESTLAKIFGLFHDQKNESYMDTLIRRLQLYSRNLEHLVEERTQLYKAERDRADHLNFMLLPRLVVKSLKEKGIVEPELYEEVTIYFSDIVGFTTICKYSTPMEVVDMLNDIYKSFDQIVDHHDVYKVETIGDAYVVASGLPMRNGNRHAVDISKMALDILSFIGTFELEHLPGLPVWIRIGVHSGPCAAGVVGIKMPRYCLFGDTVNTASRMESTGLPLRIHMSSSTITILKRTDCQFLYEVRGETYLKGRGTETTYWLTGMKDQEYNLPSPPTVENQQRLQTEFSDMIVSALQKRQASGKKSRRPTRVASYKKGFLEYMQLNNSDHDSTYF
# Assay: flow cytometry on HEK293T.mGCC.Luc cells, PE goat anti-mouse IgG secondary; Binding % = cells with antibody bound / total cells
row,Binder,binding result
1,B1,no binding (tested: 1000 nM)
2,B2,no binding (tested: 1000 nM)
